Tests used:
[1] = biological target: HLA A0201 (Homo sapiens, UniProt P04439, D140Y/D185E/D98H/E176V/E277Q/G131W/G231S/I119V/I121R/I166T/I218V/L300P/L318F/N151K/N90K/P208A/P217A/Q86G/Q94H/R138H/R169H/T345S); assay: BIMAS predicted score for binding to HLA A0201; conditions: analogue versus native CMLA2
Experimental: Peptides with potential CTL epitopes can be predicted by means of a peptide library-based scoring system for MHC class I-binding peptides. AA sequences of the human b3a2 and b2a2 fusion proteins were scanned for peptides with potential binding capacity for HLA A0201, a subtype encompassing 95% of the HLA-A02 allele. HLA-A0201 is expressed in about 40% of the Caucasian population.
Substitutions were determined using the software of the Bioinformatics & Molecular Analysis Section (National Institutes of Health, Washington, D.C.) (Parker K C, et al. J Immunol 1994;152(1):163-75; available at http://bimas.dcrt.nih.gov/cgi-bin/molbio/ken_parker_comboform), which ranks 9-mer or 10-mer peptides on a predicted half life dissociation coefficient from HLA class I molecules. Several analogue peptides were designed whereby one or both anchor amino acids or additional amino acids adjacent to anchor amino acids were modified. […] All the native peptides were predicted to have a half life of less than one minute. Most substitutions affected the primary or secondary anchor motifs (leucine in position 2 or valine in position 9 or 6) but in some cases, a tyrosine was substituted in position 1. […] Also depicted in Table 1 are the predicted half lives according to another software program, […] (Rammensee H G, et al., Immunogenetics 1995; 41(4): 178-228; available at http://syfpeithi.bmi-heidelberg.com).

[2] = biological target: T1, HLA A0201 molecules (Homo sapiens, UniProt P04439, D140Y/D185E/D98H/E176V/E277Q/G131W/G231S/I119V/I121R/I166T/I218V/L300P/L318F/N151K/N90K/P208A/P217A/Q86G/Q94H/R138H/R169H/T345S); assay: T2 assay for peptide binding to HLA A0201 molecules; conditions: T2 cells, FIG. 1
T1 construct: endogenous in cells; host or cells: T2 (174xCEM.T2) human cell line
Experimental: T2 cells (TAP-, HLA-A0201^+) were incubated overnight at 27° C. at a concentration of 1×10^6 cells/ml in FCS-free RPMI medium supplemented with 5 μg/ml human β2microglobulin (Sigma, St Louis, Mo.) in the absence (negative control) or presence of either a positive reference tyrosinase peptide or test peptides at various final concentrations (50, 10, 1, and 0.1 μg/ml). Following a 4-hour incubation with 5 μg/ml brefeldin A (Sigma), T2 cells were labeled for 30 minutes at 4° C. with a saturating concentration of anti-HLA-A2.1 (BB7.2) monoclonal antibody (mAb), then washed twice. The cells were then incubated for 30 minutes at 4° C. with a saturating concentration of FITC-conjugated goat IgG F(ab′)2 anti-mouse Ig (Caltag, South San Francisco, Calif.), washed twice, fixed in PBS/1% paraformaldehyde and analyzed using a FACS Calibur® cytofluorometer (Becton Dickinson, Immunocytometry systems, San Jose, Calif.).
The mean intensity of fluorescence (MIF) observed for each peptide concentration (after dividing of the MIF observed without peptide) was used as an estimate of peptide binding and expressed as a fluorescence index. Stabilization assays were performed similarly. Following initial evaluation of peptide binding at time 0, cells were washed in RPMI complete medium to remove free peptides and incubated in the continuous presence of 0.5 pg/ml brefeldin-A for 2, 4, 6 or 8 hours. […]

[3] = tested on: T cells from HLA A0201 donors challenged with peptide-pulsed T2 cells; assay: Gamma interferon ELISPOT of T cells after in vitro stimulation with peptide; assay type: cell-based, human; conditions: healthy HLA A0201 donors

For “YLKALQRPV (listed as Homo sapiens) [p210F]”, the “increase of BIMAS prediction” value [1] was 700 fold, the “binding to HLA A0201 in the T2 assay” value [2] was “high avidity” and the “recognition of the native sequence by T cells elicited with the peptide” value ([3]; T2 pulsed with native peptide) was “able to recognize their respective native sequences”. For the same sequence, the “immune response (IFN-gamma secretion, ELISPOT)” value ([3]; second or third round of peptide stimulation, peptide-pulsed T2 targets) was “most consistent and significant immune-responses”.

Source: US20060153861A1, “BCR-ABL imatinib resistance-associated peptides and methods of use thereof” (priority 2004, published 2006)
